Laboratory results taken from patent US20160271244A1.

Tests used:
HCV E2 (HCV) = assay: Luminex assay, antibody 50 µg/ml
[1] = molecular target: Influenza HA (Wisconsin) (influenza virus); assay: Luminex assay, antibody 50 µg/ml
Histone [2] = assay: Athena autoantigen assay, mAb 25 ug/ml
Jo 1 [3] = assay: Athena autoantigen assay, mAb 25 ug/ml
RNP [4] = assay: Athena autoantigen assay, mAb 25 ug/ml
SSA [5] = assay: Athena autoantigen assay, mAb 25 ug/ml
SSB [6] = assay: Athena autoantigen assay, mAb 25 ug/ml
Chain of SSB (P05455 whole entry): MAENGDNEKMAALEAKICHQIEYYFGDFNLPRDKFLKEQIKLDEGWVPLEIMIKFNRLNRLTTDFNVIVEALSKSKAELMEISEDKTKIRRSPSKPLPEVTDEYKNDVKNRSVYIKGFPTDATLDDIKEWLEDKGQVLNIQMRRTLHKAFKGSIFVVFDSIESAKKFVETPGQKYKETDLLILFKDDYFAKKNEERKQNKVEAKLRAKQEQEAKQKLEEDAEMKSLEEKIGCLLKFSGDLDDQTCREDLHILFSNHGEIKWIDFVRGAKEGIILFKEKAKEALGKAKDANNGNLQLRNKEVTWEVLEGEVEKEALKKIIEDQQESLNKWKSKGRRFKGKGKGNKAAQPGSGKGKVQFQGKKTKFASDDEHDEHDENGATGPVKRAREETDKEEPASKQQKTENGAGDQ

Scl 70 [7] = assay: Athena autoantigen assay, mAb 25 ug/ml
Sm [8] = assay: Athena autoantigen assay, mAb 25 ug/ml
Histone [9] = assay: Athena autoantigen assay, mAb 50 ug/ml
RNP [10] = assay: Athena autoantigen assay, mAb 50 ug/ml
Histone [11] = assay: Athena autoantigen assay, mAb 12.5 ug/ml
Jo 1 [12] = assay: Athena autoantigen assay, mAb 12.5 ug/ml
RNP [13] = assay: Athena autoantigen assay, mAb 12.5 ug/ml
SSA [14] = assay: Athena autoantigen assay, mAb 12.5 ug/ml
SSB [15] = assay: Athena autoantigen assay, mAb 12.5 ug/ml
Scl 70 [16] = assay: Athena autoantigen assay, mAb 12.5 ug/ml
Sm [17] = assay: Athena autoantigen assay, mAb 12.5 ug/ml
Histone [18] = assay: Athena autoantigen assay, mAb 6.25 ug/ml
Jo 1 [19] = assay: Athena autoantigen assay, mAb 6.25 ug/ml
RNP [20] = assay: Athena autoantigen assay, mAb 6.25 ug/ml
SSA [21] = assay: Athena autoantigen assay, mAb 6.25 ug/ml
SSB [22] = assay: Athena autoantigen assay, mAb 6.25 ug/ml
Scl 70 [23] = assay: Athena autoantigen assay, mAb 6.25 ug/ml
Sm [24] = assay: Athena autoantigen assay, mAb 6.25 ug/ml
[25] = molecular target: Env (gp120) of HIV-1 7165.18.N160K (HIV-1); assay: cell-based or functional assay
[26] = molecular target: Env (gp120) of HIV-1 JRCSF.N160K (HIV-1) (UniProt P20871); assay: cell-based or functional assay
[27] = molecular target: Env (gp120) of HIV-1 JRFL.E168K (HIV-1); assay: cell-based or functional assay
[28] = molecular target: Env (gp120) of HIV-1 JRFL.N160K.E168K (HIV-1); assay: cell-based or functional assay
[29] = molecular target: Env (gp120) of HIV-1 Q23.17.N160K (HIV-1); assay: cell-based or functional assay
[30] = molecular target: Env (gp120) of HIV-1 isolate 7165.18 (HIV-1); assay: cell-based or functional assay
[31] = molecular target: Env (gp120) of HIV-1 isolate JRCSF (HIV-1) (UniProt P20871); assay: cell-based or functional assay
[32] = molecular target: Env (gp120) of HIV-1 isolate JRFL (virus) (HIV-1); assay: cell-based or functional assay
[33] = molecular target: Env (gp120) of HIV-1 isolate Q23.17 (HIV-1); assay: cell-based or functional assay
[34] = molecular target: HV00044 (6240 TZ5 140C) (HIV-1); assay: surface plasmon resonance; five sensorgrams with fitted curves, highest rising to about 650 RU with almost no dissociation up to 1000 s

Chain of Jo 1 (P12081 2-509): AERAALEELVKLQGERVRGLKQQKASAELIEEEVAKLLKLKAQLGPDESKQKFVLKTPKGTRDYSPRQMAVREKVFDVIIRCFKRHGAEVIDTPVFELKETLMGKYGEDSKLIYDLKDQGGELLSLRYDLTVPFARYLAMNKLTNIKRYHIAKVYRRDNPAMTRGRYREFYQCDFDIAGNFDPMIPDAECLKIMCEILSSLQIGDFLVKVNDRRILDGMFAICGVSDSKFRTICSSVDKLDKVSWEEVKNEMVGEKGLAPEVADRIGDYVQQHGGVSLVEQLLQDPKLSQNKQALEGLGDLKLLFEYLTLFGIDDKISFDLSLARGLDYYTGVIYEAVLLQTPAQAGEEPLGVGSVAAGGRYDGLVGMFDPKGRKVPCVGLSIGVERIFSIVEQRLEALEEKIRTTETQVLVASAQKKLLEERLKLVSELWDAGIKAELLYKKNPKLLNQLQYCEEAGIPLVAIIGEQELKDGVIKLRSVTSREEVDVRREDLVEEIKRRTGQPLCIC

With CH03 (antibody) the background subtracted RFUs (HCV E2 (HCV)) was 2910 RFU, the background subtracted RFUs [1] was 1 RFU and the Athena autoreactivity score (Histone [2]) was 386. For the same substance, the Athena autoreactivity score (Jo 1 [3]) was 4, the Athena autoreactivity score (RNP [4]) was 70 and the Athena autoreactivity score (SSA [5]) was 6. For the same substance, the Athena autoreactivity score (SSB [6]) was 4, the Athena autoreactivity score (Scl 70 [7]) was 7 and the Athena autoreactivity score (Sm [8]) was 10. For the same substance, the Athena autoreactivity score (Histone [9]) was 844, the Athena autoreactivity score (RNP [10]) was 132 and the Athena autoreactivity score (Histone [11]) was 359. The Athena autoreactivity score (Jo 1 [12]) was 4, the Athena autoreactivity score (RNP [13]) was 74 and the Athena autoreactivity score (SSA [14]) was 6. The Athena autoreactivity score (SSB [15]) was 6, the Athena autoreactivity score (Scl 70 [16]) was 8 and the Athena autoreactivity score (Sm [17]) was 9. The Athena autoreactivity score (Histone [18]) was 231, the Athena autoreactivity score (Jo 1 [19]) was 3 and the Athena autoreactivity score (RNP [20]) was 51. It also gave an Athena autoreactivity score (SSA [21]) of 5, an Athena autoreactivity score (SSB [22]) of 5 and an Athena autoreactivity score (Scl 70 [23]) of 4. The Athena autoreactivity score (Sm [24]) was 7.

CH04 (antibody) gave a background subtracted RFUs (HCV E2 (HCV)) of 0.5 RFU and a background subtracted RFUs [1] of 2.5 RFU.

CH05 (antibody) gave a background subtracted RFUs (HCV E2 (HCV)) of 1.3 RFU and a background subtracted RFUs [1] of 5.5 RFU.

PG9 (antibody) was tested, and the IC50 (virus neutralization) [25] was > 50 µg/mL, the IC80 (virus neutralization) [25] was > 50 µg/mL and the IC50 (virus neutralization) [26] was > 50 µg/mL. For the same substance, the IC80 (virus neutralization) [26] was > 50 µg/mL, the IC50 (virus neutralization) [27] was 0.008 µg/mL and the IC80 (virus neutralization) [27] was 0.055 µg/mL. For the same substance, the IC50 (virus neutralization) [28] was > 50 µg/mL, the IC80 (virus neutralization) [28] was > 50 µg/mL and the IC50 (virus neutralization) [29] was > 50 µg/mL. For the same substance, the IC80 (virus neutralization) [29] was > 50 µg/mL, the IC50 (virus neutralization) [30] was > 50 µg/mL and the IC80 (virus neutralization) [30] was > 50 µg/mL. For the same substance, the IC50 (virus neutralization) [31] was 0.003 µg/mL, the IC80 (virus neutralization) [31] was 0.008 µg/mL and the IC50 (virus neutralization) [32] was > 50 µg/mL. For the same substance, the IC80 (virus neutralization) [32] was > 50 µg/mL, the IC50 (virus neutralization) [33] was 0.002 µg/mL and the IC80 (virus neutralization) [33] was 0.005 µg/mL. For the same substance, the background subtracted RFUs (HCV E2 (HCV)) was 0 RFU, the background subtracted RFUs [1] was 0 RFU and the Kd [34] was 750 pM.

PG16 (antibody) was tested, and the IC50 (virus neutralization) [25] was > 50 µg/mL, the IC80 (virus neutralization) [25] was > 50 µg/mL and the IC50 (virus neutralization) [26] was > 50 µg/mL. For the same substance, the IC80 (virus neutralization) [26] was > 50 µg/mL, the IC50 (virus neutralization) [27] was 0.003 µg/mL and the IC80 (virus neutralization) [27] was 0.015 µg/mL. For the same substance, the IC50 (virus neutralization) [28] was > 50 µg/mL, the IC80 (virus neutralization) [28] was > 50 µg/mL and the IC50 (virus neutralization) [29] was > 50 µg/mL. For the same substance, the IC80 (virus neutralization) [29] was > 50 µg/mL, the IC50 (virus neutralization) [30] was 11.8 µg/mL and the IC80 (virus neutralization) [30] was > 50 µg/mL. For the same substance, the IC50 (virus neutralization) [31] was 0.003 µg/mL, the IC80 (virus neutralization) [31] was 0.012 µg/mL and the IC50 (virus neutralization) [32] was > 50 µg/mL. The IC80 (virus neutralization) [32] was > 50 µg/mL, the IC50 (virus neutralization) [33] was 0.001 µg/mL and the IC80 (virus neutralization) [33] was 0.003 µg/mL. The background subtracted RFUs (HCV E2 (HCV)) was 0 RFU and the background subtracted RFUs [1] was 0 RFU.

“Synagis (anti-RSV control mAb) (antibody)” was tested, and the background subtracted RFUs (HCV E2 (HCV)) was 0.5 RFU and the background subtracted RFUs [1] was 1 RFU.
